The source of these data is paper PMC9818267, “Brain Natriuretic Peptide Protects Cardiomyocytes from Apoptosis and Stimulates Their Cell Cycle Re-Entry in Mouse Infarcted Hearts” (Cells, 2022).

Assay [1] has as its target NPR-A or NPR-B (mouse (endogenous in cardiomyocytes)).
Assay [2] has the same target. The source holds these as a separate data set.

For “Brain Natriuretic Peptide, synthetic mouse BNP (1–45) peptide”, in assay [1], the pPLB/PLB ratio (Western blot) in CMs isolated from the RZ of infarcted hearts after BNP injections, against saline (decreased) was -32%; the pPLB/PLB ratio (Western blot) in CMs isolated from the border zone (BZ) of infarcted hearts after BNP injections, against saline was 2.7 fold; the pPLB/PLB ratio (Western blot) in CMs isolated from unmanipulated adult hearts after BNP injections, against saline amounted to 1.5 fold; the pPLB/PLB ratio (Western blot) in CMs isolated from unmanipulated neonatal hearts after BNP injections, against saline was found to be 3.5 fold. Besides, the pPLB/PLB ratio (Western blot) in adult CMs isolated from C57BL/6 hearts and stimulated in vitro with BNP for 2–3 h, against untreated cells in assay [2] amounted to 2.1 fold.
